± gives the uncertainty stated by the source.

This series can be described thus: abundance fitness (aPCA) (normalised: wild type 0, dead -1); higher = more abundant; growth selection in yeast, the domain comes from the species named. The following applies: Homo sapiens.
“SAFB-like transcription modulator Q54A, Q9NWH9” displayed an abundance fitness of -0.167 ± 0.083.

For the substance “SAFB-like transcription modulator Q54C, Q9NWH9”, the abundance fitness is -0.209 ± 0.087.

Substance “SAFB-like transcription modulator Q54F, Q9NWH9” displayed an abundance fitness of -0.068 ± 0.1.

As for “SAFB-like transcription modulator Q54G, Q9NWH9”, the abundance fitness is -0.258 ± 0.069.

Take “SAFB-like transcription modulator Q54K, Q9NWH9”: the abundance fitness was determined as 0.057 ± 0.1.

For “SAFB-like transcription modulator Q54L, Q9NWH9”, the abundance fitness was determined as 0 ± 0.072.

The substance “SAFB-like transcription modulator Q54M, Q9NWH9” had an abundance fitness of -0.009 ± 0.1.

On to “SAFB-like transcription modulator Q54N, Q9NWH9”, for which the abundance fitness is -0.037 ± 0.24.

On to “SAFB-like transcription modulator Q54P, Q9NWH9”, for which the abundance fitness was -0.666 ± 0.3.

As for “SAFB-like transcription modulator Q54R, Q9NWH9”, the abundance fitness was -0.106 ± 0.045.

As to “SAFB-like transcription modulator Q54S, Q9NWH9”, the abundance fitness was -0.526 ± 0.1.

“SAFB-like transcription modulator Q54T, Q9NWH9” showed an abundance fitness of 0.146 ± 0.09.

“SAFB-like transcription modulator Q54V, Q9NWH9” came in with an abundance fitness of -0.209 ± 0.078.

Substance “SAFB-like transcription modulator Q54W, Q9NWH9” had an abundance fitness of -0.043 ± 0.08.

Substance “SAFB-like transcription modulator Q54Y, Q9NWH9” displayed an abundance fitness of -0.497 ± 0.27.

In turn, “SAFB-like transcription modulator R26A, Q9NWH9” showed an abundance fitness of -0.12 ± 0.1.

Take “SAFB-like transcription modulator R26C, Q9NWH9”: the abundance fitness is -0.57 ± 0.14.

“SAFB-like transcription modulator R26D, Q9NWH9” came in with an abundance fitness of 0.033 ± 0.15.

In turn, “SAFB-like transcription modulator R26E, Q9NWH9” gave an abundance fitness of -0.191 ± 0.11.

Consider “SAFB-like transcription modulator R26F, Q9NWH9”, for which the abundance fitness was -0.268 ± 0.065.

“SAFB-like transcription modulator R26G, Q9NWH9” registered an abundance fitness of -0.19 ± 0.08.

On to “SAFB-like transcription modulator R26H, Q9NWH9”, for which the abundance fitness is -0.322 ± 0.23.

As for “SAFB-like transcription modulator R26K, Q9NWH9”, the abundance fitness is -0.389 ± 0.14.

Turning to “SAFB-like transcription modulator R26L, Q9NWH9”, the abundance fitness is -0.131 ± 0.078.

In turn, “SAFB-like transcription modulator R26M, Q9NWH9” returned an abundance fitness of -0.098 ± 0.092.

With “SAFB-like transcription modulator R26P, Q9NWH9”, the abundance fitness was -0.126 ± 0.14.

“SAFB-like transcription modulator R26Q, Q9NWH9” registered an abundance fitness of -0.502 ± 0.17.

With “SAFB-like transcription modulator R26S, Q9NWH9”, the abundance fitness is -0.011 ± 0.071.

In the case of “SAFB-like transcription modulator R26T, Q9NWH9”, the abundance fitness is -0.302 ± 0.12.

For the substance “SAFB-like transcription modulator R26V, Q9NWH9”, the abundance fitness was -0.365 ± 0.085.

Take “SAFB-like transcription modulator R26W, Q9NWH9”: the abundance fitness was -0.627 ± 0.1.

As for “SAFB-like transcription modulator R26Y, Q9NWH9”, the abundance fitness was -0.579 ± 0.27.

“SAFB-like transcription modulator R36S, Q9NWH9” yielded an abundance fitness of -0.048 ± 0.42.

As to “SAFB-like transcription modulator R37A, Q9NWH9”, the abundance fitness is -1.09 ± 0.091.

Turning to “SAFB-like transcription modulator R37C, Q9NWH9”, the abundance fitness is -0.921 ± 0.052.

For the substance “SAFB-like transcription modulator R37D, Q9NWH9”, the abundance fitness was -0.621 ± 0.052.

The substance “SAFB-like transcription modulator R37E, Q9NWH9” gave an abundance fitness of -0.694 ± 0.036.

“SAFB-like transcription modulator R37G, Q9NWH9” came in with an abundance fitness of -0.912 ± 0.047.

“SAFB-like transcription modulator R37H, Q9NWH9” displayed an abundance fitness of -0.648 ± 0.066.

Substance “SAFB-like transcription modulator R37I, Q9NWH9” returned an abundance fitness of -1.07 ± 0.16.

In turn, “SAFB-like transcription modulator R37K, Q9NWH9” had an abundance fitness of -0.283 ± 0.098.

In the case of “SAFB-like transcription modulator R37L, Q9NWH9”, the abundance fitness is -0.71 ± 0.045.

Regarding “SAFB-like transcription modulator R37M, Q9NWH9”, the abundance fitness is -0.601 ± 0.064.

Consider “SAFB-like transcription modulator R37N, Q9NWH9”, for which the abundance fitness is -1.12 ± 0.17.

“SAFB-like transcription modulator R37P, Q9NWH9” yielded an abundance fitness of -0.658 ± 0.094.

On to “SAFB-like transcription modulator R37Q, Q9NWH9”, for which the abundance fitness is -0.575 ± 0.13.

Turning to “SAFB-like transcription modulator R37S, Q9NWH9”, the abundance fitness was -0.845 ± 0.057.

“SAFB-like transcription modulator R37T, Q9NWH9” registered an abundance fitness of -0.751 ± 0.078.

On to “SAFB-like transcription modulator R37V, Q9NWH9”, for which the abundance fitness was -1.06 ± 0.08.

Substance “SAFB-like transcription modulator R37W, Q9NWH9” returned an abundance fitness of -1.26 ± 0.071.

“SAFB-like transcription modulator R37Y, Q9NWH9” gave an abundance fitness of -0.722 ± 0.16.

“SAFB-like transcription modulator R51A, Q9NWH9” came in with an abundance fitness of -0.437 ± 0.077.

In turn, “SAFB-like transcription modulator R51D, Q9NWH9” yielded an abundance fitness of -0.783 ± 0.4.

As to “SAFB-like transcription modulator R51F, Q9NWH9”, the abundance fitness is -1.21 ± 0.38.

Substance “SAFB-like transcription modulator R51G, Q9NWH9” returned an abundance fitness of -0.574 ± 0.078.

The substance “SAFB-like transcription modulator R51H, Q9NWH9” gave an abundance fitness of -0.814 ± 0.27.

Substance “SAFB-like transcription modulator R51I, Q9NWH9” had an abundance fitness of -0.542 ± 0.22.

On to “SAFB-like transcription modulator R51K, Q9NWH9”, for which the abundance fitness was -0.2 ± 0.065.

Consider “SAFB-like transcription modulator R51L, Q9NWH9”, for which the abundance fitness was -0.753 ± 0.068.

In turn, “SAFB-like transcription modulator R51M, Q9NWH9” had an abundance fitness of -0.506 ± 0.051.

Substance “SAFB-like transcription modulator R51N, Q9NWH9” displayed an abundance fitness of -0.403 ± 0.037.

With “SAFB-like transcription modulator R51P, Q9NWH9”, the abundance fitness was -0.699 ± 0.13.

“SAFB-like transcription modulator R51S, Q9NWH9” registered an abundance fitness of -0.511 ± 0.063.

“SAFB-like transcription modulator R51T, Q9NWH9”: the abundance fitness was -0.57 ± 0.13.

Substance “SAFB-like transcription modulator R51V, Q9NWH9” yielded an abundance fitness of -0.73 ± 0.19.

“SAFB-like transcription modulator R51W, Q9NWH9” gave an abundance fitness of -1.1 ± 0.085.

In turn, “SAFB-like transcription modulator R51Y, Q9NWH9” came in with an abundance fitness of -1.01 ± 0.35.

Take “SAFB-like transcription modulator S32A, Q9NWH9”: the abundance fitness is -0.147 ± 0.062.

“SAFB-like transcription modulator S32C, Q9NWH9” showed an abundance fitness of -0.309 ± 0.067.

“SAFB-like transcription modulator S32D, Q9NWH9” showed an abundance fitness of 0.156 ± 0.073.

Consider “SAFB-like transcription modulator S32E, Q9NWH9”, for which the abundance fitness was -0.03 ± 0.05.

“SAFB-like transcription modulator S32F, Q9NWH9” returned an abundance fitness of -0.125 ± 0.036.

Substance “SAFB-like transcription modulator S32G, Q9NWH9” came in with an abundance fitness of -0.077 ± 0.051.

The substance “SAFB-like transcription modulator S32H, Q9NWH9” had an abundance fitness of -0.031 ± 0.055.

Regarding “SAFB-like transcription modulator S32K, Q9NWH9”, the abundance fitness was -0.246 ± 0.085.

“SAFB-like transcription modulator S32L, Q9NWH9” displayed an abundance fitness of -0.024 ± 0.04.

With “SAFB-like transcription modulator S32M, Q9NWH9”, the abundance fitness is -0.051 ± 0.044.

“SAFB-like transcription modulator S32N, Q9NWH9” came in with an abundance fitness of -0.407 ± 0.11.

In the case of “SAFB-like transcription modulator S32P, Q9NWH9”, the abundance fitness was -0.768 ± 0.058.

“SAFB-like transcription modulator S32Q, Q9NWH9” registered an abundance fitness of -0.325 ± 0.097.

Consider “SAFB-like transcription modulator S32R, Q9NWH9”, for which the abundance fitness was -0.176 ± 0.045.

“SAFB-like transcription modulator S32T, Q9NWH9” had an abundance fitness of -0.048 ± 0.068.

Substance “SAFB-like transcription modulator S32V, Q9NWH9” registered an abundance fitness of -0.023 ± 0.051.

Substance “SAFB-like transcription modulator S32W, Q9NWH9” had an abundance fitness of -0.108 ± 0.049.

Substance “SAFB-like transcription modulator S32Y, Q9NWH9” registered an abundance fitness of -0.173 ± 0.09.

“SAFB-like transcription modulator S50A, Q9NWH9” came in with an abundance fitness of 0.015 ± 0.037.

In turn, “SAFB-like transcription modulator S50C, Q9NWH9” registered an abundance fitness of -0.342 ± 0.082.

“SAFB-like transcription modulator S50D, Q9NWH9” gave an abundance fitness of -0.109 ± 0.065.

With “SAFB-like transcription modulator S50E, Q9NWH9”, the abundance fitness turned out to be 0.087 ± 0.075.

Consider “SAFB-like transcription modulator S50F, Q9NWH9”, for which the abundance fitness is -0.253 ± 0.052.

“SAFB-like transcription modulator S50G, Q9NWH9” registered an abundance fitness of 0.028 ± 0.039.

These data come from the Human Domainome abundance scans (Beltran et al. 2025).
